Earlier results in patent US9879249B2, “Aldehyde-tagged protein-based drug carriers and methods of use” (Redwood Bioscience, Inc., priority 2009, dated 2018).

Details: calcitonin peptide alone, unconjugated

## Calcitonin
  absorption half-life: 10 to 15 min
  elimination half-life: 50 to 80 min
